Results as given in patent US20220235143A1.

What was measured:
[1] = target: MUC16 c344 expressed on transfected cells (SKOV3-phrGFP-MUC16c344, A2780-phrGFP-MUC16c344) (human); test: FACS surface staining of SKOV3-c344 transfectant cells, goat anti-mouse IgG2b-PE detection; same cells: secondary alone 106, cells only 49.2; 4H11 on vector control SKOV3-phrGFP 162
[2] = target: MUC16 c114 expressed on transfected SKOV3 cells (SKOV3^c114) (human); test: FACS surface staining of A2780-c114 transfectant cells, goat anti-mouse IgG2b-PE detection; same cells: secondary alone 42.3, cells only 24.6; 4H11 on vector control A2780-phrGFP: bar at the level of secondary alone, label overlapped
Sequence of MUC16 c114 expressed on transfected SKOV3 cells (SKOV3^c114) (human) (chain, as listed by the source limits assumed): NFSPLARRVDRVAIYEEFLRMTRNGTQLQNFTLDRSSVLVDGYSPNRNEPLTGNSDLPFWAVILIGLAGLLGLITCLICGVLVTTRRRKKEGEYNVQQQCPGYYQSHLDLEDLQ

[3] = target: MUC16 c114 expressed on transfected SKOV3 cells (SKOV3^c114) (human); test: saturation binding of 89Zr-DFO antibody on SKOV3^c114 cells
[4] = target: MUC16 as naturally expressed on ovarian cancer cell lines (OVCAR3; also OVCA-433, CAOV3) (human); test: FACS surface staining of OVCAR3 cells, goat anti-mouse IgG2b-PE detection; same cells: secondary alone 1.95, cells only 0.34
[5] = target: MUC16 c344 expressed on transfected cells (SKOV3-phrGFP-MUC16c344, A2780-phrGFP-MUC16c344) (human); test: FACS surface staining of A2780-c344 transfectant cells, goat anti-mouse IgG2b-PE detection; same cells: secondary alone 69.8, cells only 33.7; 4H11 on vector control A2780-phrGFP: bar at the level of secondary alone, label overlapped
[6] = target: MUC16 c114 expressed on transfected SKOV3 cells (SKOV3^c114) (human); test: saturation binding assay, 89Zr-labeled antibody on SKOV3^c114 cells, cell bound activity (counts); right panel
[7] = target: MUC16 c114 expressed on transfected SKOV3 cells (SKOV3^c114) (human); test: Lindmo cell-binding assay on SKOV3^c114 cells
[8] = target: MUC16 c114 expressed on transfected SKOV3 cells (SKOV3^c114) (human); test: FACS surface staining of SKOV3-c114 transfectant cells, goat anti-mouse IgG2b-PE detection; same cells: secondary alone 138, cells only 36.8; 4H11 on vector control SKOV3-phrGFP 162
[9] = target: MUC16 c114 expressed on transfected SKOV3 cells (SKOV3^c114) (human); test: FACS surface staining of SKOV3-c114 transfectant cells, goat anti-mouse IgG2b-PE detection; same cells: secondary alone 6.80, cells only 0.14; 4H11 on vector control SKOV3-phrGFP 2.80
[10] = target: MUC16 c114 expressed on transfected SKOV3 cells (SKOV3^c114) (human); test: FACS surface staining of A2780-c114 transfectant cells, goat anti-mouse IgG2b-PE detection; same cells: secondary alone 0.10, cells only 0.01; 4H11 on vector control A2780-phrGFP 0.88
[11] = target: MUC16 as naturally expressed on ovarian cancer cell lines (OVCAR3; also OVCA-433, CAOV3) (human); test: FACS surface staining of OVCAR3 cells, goat anti-mouse IgG2b-PE detection; same cells: secondary alone 65.8, cells only 24.6
[12] = target: MUC16 c344 expressed on transfected cells (SKOV3-phrGFP-MUC16c344, A2780-phrGFP-MUC16c344) (human); test: FACS surface staining of A2780-c344 transfectant cells, goat anti-mouse IgG2b-PE detection; same cells: secondary alone 0.68, cells only 0.07; 4H11 on vector control A2780-phrGFP 0.88
[13] = target: MUC16 c114 expressed on transfected SKOV3 cells (SKOV3^c114) (human); test: Lindmo cell-binding assay, 89Zr-DFO antibody on SKOV3^c114 cells
[14] = target: MUC16 c344 expressed on transfected cells (SKOV3-phrGFP-MUC16c344, A2780-phrGFP-MUC16c344) (human); test: FACS surface staining of SKOV3-c344 transfectant cells, goat anti-mouse IgG2b-PE detection; same cells: secondary alone 0.53, cells only 0.04; 4H11 on vector control SKOV3-phrGFP 2.80

Sequence of MUC16 c344 expressed on transfected cells (SKOV3-phrGFP-MUC16c344, A2780-phrGFP-MUC16c344) (human) (chain, as listed by the source limits assumed): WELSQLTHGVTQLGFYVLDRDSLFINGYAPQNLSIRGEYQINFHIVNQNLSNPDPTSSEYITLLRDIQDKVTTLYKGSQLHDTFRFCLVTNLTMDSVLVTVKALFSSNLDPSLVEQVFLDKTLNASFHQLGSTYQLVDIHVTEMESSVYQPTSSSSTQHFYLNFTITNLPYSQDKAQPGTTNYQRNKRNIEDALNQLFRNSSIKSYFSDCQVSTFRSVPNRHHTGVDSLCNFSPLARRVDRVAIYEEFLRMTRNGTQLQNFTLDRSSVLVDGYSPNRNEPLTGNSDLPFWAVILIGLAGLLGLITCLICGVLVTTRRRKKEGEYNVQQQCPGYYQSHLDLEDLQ

4H11 murine monoclonal antibody
Geometric Mean PE Fluorescence (Relative Number) [1]: 1580 | Geometric Mean PE Fluorescence (Relative Number) [2]: 544 | Kd [3]: 6.4 nM | % PE Positive [4]: 98.5% | Geometric Mean PE Fluorescence (Relative Number) [5]: 777 | EC50 (read off the curve) [6]: 6 nM | Kd [6]: 6.37 nM | immunoreactive fraction [7]: > 80% | Geometric Mean PE Fluorescence (Relative Number) [8]: 2080 | % PE Positive [9]: 95.9% | % PE Positive [10]: 71.3% | Geometric Mean PE Fluorescence (Relative Number) [11]: 3050 | % PE Positive [12]: 93.8% | Immunoreactive Fraction (%) [13]: 88.3% | % PE Positive [14]: 41.2%
